Measurements: the supplement of paper PMC11246515
± gives the standard deviation of the averaged measurements.

Test: total protein half-life in vivo (active degradation + dilution); higher = more stable protein
[1] = E. coli NCM3722 delta-clpP delta-lon delta-hslV, growth: N-lim chemostat, doubling time 6 h
[2] = E. coli NCM3722 delta-clpP, growth: N-lim chemostat, doubling time 6 h
[3] = E. coli NCM3722 delta-hslV, growth: N-lim chemostat, doubling time 6 h
[4] = E. coli NCM3722 delta-lon, growth: N-lim chemostat, doubling time 6 h
[5] = E. coli NCM3722 delta-smpB, growth: N-lim chemostat, doubling time 6 h
[6] = wild type E. coli NCM3722, growth: C-lim chemostat, doubling time 3 h
[7] = wild type E. coli NCM3722, growth: C-lim chemostat, doubling time 6 h
[8] = wild type E. coli NCM3722, growth: C-lim chemostat, doubling time 12 h
[9] = wild type E. coli NCM3722, growth: N-lim chemostat, doubling time 6 h
[10] = wild type E. coli NCM3722, growth: N-lim chemostat, doubling time 12 h
[11] = wild type E. coli NCM3722, growth: P-lim chemostat, doubling time 6 h
[12] = wild type E. coli NCM3722, growth: P-lim chemostat, doubling time 12 h

Sequence	total protein half-life in vivo [1] [h]	total protein half-life in vivo [2] [h]	total protein half-life in vivo [3] [h]	total protein half-life in vivo [4] [h]	total protein half-life in vivo [5] [h]	total protein half-life in vivo [6] [h]	total protein half-life in vivo [7] [h]	total protein half-life in vivo [8] [h]	total protein half-life in vivo [9] [h]	total protein half-life in vivo [10] [h]	total protein half-life in vivo [11] [h]	total protein half-life in vivo [12] [h]
MNSLFASTARGLEELLKTELENLGAVECQVVQGGVHFKGDTRLVYQSLMWSRLASRIMLPLGECKVYSDLDLYLGVQAINWTEMFNPGATFAVHFSGLNDTIRNSQYGAMKVKDAIVDAFTRKNLPRPNVDRDAPDIRVNVWLHKETASIALDLSGDGLHLRGYRDRAGIAPIKETLAAAIVMRSGWQPGTPLLDPMCGSGTLLIEAAMLATDRAPGLHRGRWGFSGWAQHDEAIWQEVKAEAQTRARKGLAEYSSHFYGSDSDARVIQRARTNARLAGIGELITFEVKDVAQLTNPLPKGPYGTVLSNPPYGERLDSEPALIALHSLLGRIMKNQFGGWNLSLFSASPDLLSCLQLRADKQYKAKNGPLDCVQKNYHVAESTPDSKPAMVAEDYTNRLRKNLKKFEKWARQEGIECYRLYDADLPEYNVAVDRYADWVVVQEYAPPKTIDAHKARQRLFDIIAATISVLGIAPNKLVLKTRERQKGKNQYQKLGEKGEFLEVTEYNAHLWVNLTDYLDTGLFLDHRIARRMLGQMSKGKDFLNLFSYTGSATVHAGLGGARSTTTVDMSRTYLEWAERNLRLNGLTGRAHRLIQADCLAWLREANEQFDLIFIDPPTFSNSKRMEDAFDVQRDHLALMKDLKRLLRAGGTIMFSNNKRGFRMDLDGLAKLGLKAQEITQKTLSQDFARNRQIHNCWLITAA	5.837 ± 0.045	6.06 ± 0.79	5.92 ± 0.34	6.466 ± 0.03	5.37 ± 0.12	3.13 ± 0.17	6.101 ± 0.011	10.4 ± 0.11	5.428 ± 0.015	10.47 ± 0.039	6.129 ± 0.044	13.1 ± 1.5
MEKENITIDPRSSFTPSSSADIPVPPDGLVQRSTRIKRIQTTAMLLLFFAAVINYLDRSSLSVANLTIREELGLSATEIGALLSVFSLAYGIAQLPCGPLLDRKGPRLMLGLGMFFWSLFQAMSGMVHNFTQFVLVRIGMGIGEAPMNPCGVKVINDWFNIKERGRPMGFFNAASTIGVAVSPPILAAMMLVMGWRGMFITIGVLGIFLAIGWYMLYRNREHVELTAVEQAYLNAGSVNARRDPLSFAEWRSLFRNRTMWGMMLGFSGINYTAWLYLAWLPGYLQTAYNLDLKSTGLMAAIPFLFGAAGMLVNGYVTDWLVKGGMAPIKSRKICIIAGMFCSAAFTLIVPQATTSMTAVLLIGMALFCIHFAGTSCWGLIHVAVASRMTASVGSIQNFASFICASFAPIITGFIVDTTHSFRLALIICGCVTAAGALAYIFLVRQPINDPRKD	–	–	–	–	–	–	–	5.28	–	–	–	–
MTIVRIDAEARWSDVVIHNNTLYYTGVPENLDADAFEQTANTLAQIDAVLEKQGSNKSSILDATIFLADKNDFAAMNKAWDAWVVAGHAPVRCTVQAGLMNPKYKVEIKIVAAV [P0AEB7]	5.7 ± 0.14	5.4 ± 0.17	4.95 ± 0.36	5.51 ± 0.45	5.45 ± 0.95	3.02 ± 0.18	7.21 ± 0.84	13.5 ± 0.29	6.27 ± 1.3	11.2 ± 0.66	6.16 ± 0.16	12 ± 2.1
MTIKVGINGFGRIGRIVFRAAQKRSDIEIVAINDLLDADYMAYMLKYDSTHGRFDGTVEVKDGHLIVNGKKIRVTAERDPANLKWDEVGVDVVAEATGLFLTDETARKHITAGAKKVVMTGPSKDNTPMFVKGANFDKYAGQDIVSNASCTTNCLAPLAKVINDNFGIIEGLMTTVHATTATQKTVDGPSHKDWRGGRGASQNIIPSSTGAAKAVGKVLPELNGKLTGMAFRVPTPNVSVVDLTVRLEKAATYEQIKAAVKAAAEGEMKGVLGYTEDDVVSTDFNGEVCTSVFDAKAGIALNDNFVKLVSWYDNETGYSNKVLDLIAHISK [P0A9B2]	6.03 ± 0.4	5.43 ± 0.34	5.447 ± 0.054	5.382 ± 0.019	5.22 ± 0.19	3.35 ± 0.1	6.201 ± 0.014	12.1 ± 0.39	5.69 ± 0.16	9.73 ± 0.3	6.302 ± 0.044	12.6 ± 0.74
MSVKIVIKPNTYFDSVSLMSISTRANKLDGVEQAFVAMATEMNKGVLKNLGLLTPELEQAKNGDLMIVINGKSGADNEQLLVEIEELFNTKAQSGSHEARYATIGSAKKHIPESNLAVISVNGLFAAREARQALQNDLNVMLFSDNVSVEDELALKQLAHEKGLLMMGPDCGTAIINGAALCFGNAVRRGNIGIVGASGTGSQELSVRIHEFGGGVSQLIGTGGRDLSEKIGGLMMLDAIGMLENDPQTEIIALISKPPAPAVARKVLERARACRKPVVVCFLDRGETPVDEQGLQFARGTKEAALKAVMLSGVKQENLDLHTLNQPLIADVRARLQPQQKYIRGLFCGGTLCDETMFAVMEKHGDVYSNIQPDPEFRLKDINRSIKHTFLDFGDDDFTNGKPHPMIDPTNRISRLIEEARDPEVAVIVMDFVLGFGSHEDPVGSTIETIKEAKAIAAAEGRELIILAYVLGTDLDTPSLEQQSQMLLDAGVILASSSTNTGLLAREFICKGEEA	4.99	6.9	3.51	3.92	3.47 ± 0.37	3.06	4.99 ± 0.41	4.892 ± 0.0075	5.14	8.02 ± 1.4	4.47	7.02
MTNSNRIKLTWISFLSYALTGALVIVTGMVMGNIADYFNLPVSSMSNTFTFLNAGILISIFLNAWLMEIVPLKTQLRFGFLLMVLAVAGLMFSHSLALFSAAMFILGVVSGITMSIGTFLVTQMYEGRQRGSRLLFTDSFFSMAGMIFPMIAAFLLARSIEWYWVYACIGLVYVAIFILTFGCEFPALGKHAPKTDAPVEKEKWGIGVLFLSVAALCYILGQLGFISWVPEYAKGLGMSLNDAGTLVSNFWMSYMVGMWAFSFILRFFDLQRILTVLAGLAAILMYVFNTGTPAHMAWSILALGFFSSAIYTTIITLGSQQTKVPSPKLVNFVLTCGTIGTMLTFVVTGPIVEHSGPQAALLTANGLYAVVFVMCFLLGFVSRHRQHNTLTSH	5.5	5.55	5.855 ± 0.027	5.47 ± 0.58	5.72 ± 0.19	–	–	–	6.5 ± 0.71	–	6.42 ± 1.5	13.3
MVTKKQSRVPGRPRRFAPEQAISAAKVLFHQKGFDAVSVAEVTDYLGINPPSLYAAFGSKAGLFSRVLNEYVGTEAIPLADILRDDRPVGECLVEVLKEAARRYSQNGGCAGCMVLEGIHSHDPQARDIAVQYYHAAETTIYDYIARRHPQRAQCVTDFMSTVMSGLSAKAREGHSIEQLCATAAMAGEAIKTILEE	4.87 ± 0.78	4.19 ± 0.7	–	5.66 ± 2.6	2.87 ± 0.24	2.66 ± 0.17	4.19	4.59 ± 4.8	3.48 ± 0.37	6.59 ± 0.21	–	6.26
MMYRIRNWLVATLLLLCTPVGAATLSDIQVSNGNQQARITLSFIGDPDYAFSHQSKRTVALDIKQTGVIQGLPLLFSGNNLVKAIRSGTPKDAQTLRLVVDLTENGKTEAVKRQNGSNYTVVFTINADVPPPPPPPPVVAKRVETPAVVAPRVSEPARNPFKTESNRTTGVISSNTVTRPAARATANTGDKIIIAIDAGHGGQDPGAIGPGGTREKNVTIAIARKLRTLLNDDPMFKGVLTRDGDYFISVMGRSDVARKQNANFLVSIHADAAPNRSATGASVWVLSNRRANSEMASWLEQHEKQSELLGGAGDVLANSQSDPYLSQAVLDLQFGHSQRVGYDVATSMISQLQRIGEIHKRRPEHASLGVLRSPDIPSVLVETGFISNNSEERLLASDDYQQQLAEAIYKGLRNYFLAHPMQSAPQGATAQTASTVTTPDRTLPN	2.15 ± 0.036	2.05 ± 0.41	2.71 ± 1.6	1.97 ± 0.085	1.74 ± 0.34	1.64 ± 0.18	2.63 ± 0.23	4.87 ± 1.5	2.54 ± 0.74	2.65 ± 0.31	3.4 ± 3.2	2.92 ± 1.1
MAIRKRFIAGAKCPACQAQDSMAMWRENNIDIVECVKCGHQMREADKEARDHVRKDEQVIGIFHPD [P0ADW8]	4.91 ± 0.73	3.52 ± 0.46	–	–	2.16 ± 0.17	1.8 ± 0.47	4.08 ± 1.4	2.51	–	2.52	3.48	7.36 ± 1.6
MRIEVTIAKTSPLPAGAIDALAGELSRRIQYAFPDNEGHVSVRYAAANNLSVIGATKEDKQRISEILQETWESADDWFVSE [P0ABR1]	3.596 ± 0.025	–	2.28	2.08 ± 0.25	–	0.937 ± 0.5	–	–	–	0.715	–	0.859
MKKWLLAAGLGLALATSAQAADKIAIVNMGSLFQQVAQKTGVSNTLENEFKGRASELQRMETDLQAKMKKLQSMKAGSDRTKLEKDVMAQRQTFAQKAQAFEQDRARRSNEERGKLVTRIQTAVKSVANSQDIDLVVDANAVAYNSSDVKDITADVLKQVK [P0AEU7]	7.77 ± 0.22	–	6.97 ± 1	6.66 ± 0.53	6.63 ± 0.26	3.15 ± 0.35	6 ± 0.15	10.3 ± 0.22	5.62 ± 0.57	13.4 ± 1.8	6.79 ± 1	13.7 ± 0.66
